Results as given in PMC12022260.

Target: T1, His-FleQ (Azotobacter vinelandii AEIV) (UniProt C1DQF1)
T1 sequence: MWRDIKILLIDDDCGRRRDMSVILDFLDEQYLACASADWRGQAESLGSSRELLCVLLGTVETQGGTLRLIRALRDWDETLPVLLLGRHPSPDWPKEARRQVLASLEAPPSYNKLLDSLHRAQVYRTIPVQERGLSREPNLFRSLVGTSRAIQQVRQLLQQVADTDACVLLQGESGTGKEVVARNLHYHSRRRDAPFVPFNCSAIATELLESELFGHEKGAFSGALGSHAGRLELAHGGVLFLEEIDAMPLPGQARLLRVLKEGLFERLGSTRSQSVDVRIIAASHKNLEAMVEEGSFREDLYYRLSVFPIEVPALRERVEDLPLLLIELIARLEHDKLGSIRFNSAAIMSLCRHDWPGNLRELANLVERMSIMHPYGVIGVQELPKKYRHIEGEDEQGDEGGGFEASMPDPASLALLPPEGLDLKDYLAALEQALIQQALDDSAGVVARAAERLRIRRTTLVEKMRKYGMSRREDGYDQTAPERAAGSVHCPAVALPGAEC
Experiment: EMSA
Details: 10 mM Tris pH 8, 8 mM Mg acetate, 50 mM KCl, 10 ug/ml BSA, 5% glycerol; 100 ng DNA in 20 ul; room temperature 20 min; 6% native acrylamide gel, 0.5x-1x TBE …

Row | Sequence | binding
1 | GCGAATTCGGACGCCGCGAGTAAAACGAAAAAGCAAGCCGCCTGAACCCACACTTGCGCTCCCGGCGTTTTGTACCATGCTTTTCCTGAATCATTGTGCTAAGGAGAAAAGTATGAATAAAAGAGGAGCGTTGTTGAGCCTGCTGGATCCAGG (double strand) [yebF regulatory region] | no binding
2 | CCGAAAATGCTGATACGCATTGCGTTCACCTCGTCCTTATTTAACGAAAAGTCGACGACTAAAACCCTTGGTCGTCACATTGCCGGCGGCCTTCAAGGGAAATTTGCAGGCCGAATTATAGTCAATAAAATGTCGTGCCAAATGAGCTGGCGTTAAAAGGCAGGTTGCAAGGGATGCTTTATAACTGCTCAAGCGATCCATGTTCG (double strand) [algD proximal region] | binds
